Assays:
poly-L-lysine [1] = experiment: SPR imaging, PLL-coated Al microarray, chemokines in PBS buffer; difference against CXCL10 as reference
poly-L-lysine [2] = experiment: SPR imaging, PLL-coated Al microarray, chemokines spiked in artificial urine matrix; difference against CXCL10 as reference
[3] = target: biotinylated bovine serum albumin (bovine) (UniProt P02769); experiment: SPR angular scanning on Al/Al2O3 film, streptavidin 500 µg/mL in 1xPBS buffer
[4] = target: biotinylated bovine serum albumin (bovine) (UniProt P02769); experiment: SPR angular scanning on Al/Al2O3 film, streptavidin 500 µg/mL spiked in undiluted human serum, serum-only control subtracted

Sequence of biotinylated bovine serum albumin (bovine) (P02769 25-607 limits assumed, form in doubt): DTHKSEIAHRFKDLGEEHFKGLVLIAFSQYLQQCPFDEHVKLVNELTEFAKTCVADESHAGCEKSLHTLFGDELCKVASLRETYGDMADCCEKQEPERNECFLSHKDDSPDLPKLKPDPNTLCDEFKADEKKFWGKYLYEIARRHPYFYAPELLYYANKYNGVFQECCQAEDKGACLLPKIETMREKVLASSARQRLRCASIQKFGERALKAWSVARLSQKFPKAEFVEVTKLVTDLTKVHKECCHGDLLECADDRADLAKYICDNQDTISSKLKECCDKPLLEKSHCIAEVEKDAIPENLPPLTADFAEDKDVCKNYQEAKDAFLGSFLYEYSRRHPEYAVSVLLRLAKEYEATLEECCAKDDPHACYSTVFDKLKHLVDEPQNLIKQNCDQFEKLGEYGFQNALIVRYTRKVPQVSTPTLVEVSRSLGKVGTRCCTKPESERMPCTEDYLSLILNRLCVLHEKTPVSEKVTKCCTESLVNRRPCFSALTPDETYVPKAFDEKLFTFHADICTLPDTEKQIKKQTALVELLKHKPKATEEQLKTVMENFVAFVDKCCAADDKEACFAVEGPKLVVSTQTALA

Substance | relative difference in response between CXCL10 and CXCL8 (kinetic reflectivity shift) (poly-L-lysine [1]) [%] | relative difference in response between CXCL10 and CXCL8 (kinetic reflectivity shift) (poly-L-lysine [2]) [%] | specific binding signal (SPR angular shift) [3] [°] | specific binding signal (SPR angular shift) [4] [°]
CXCL8 (from UniProt P10145 29-99) (ligand) | 0.25 | 0.68 |  | 
streptavidin (from UniProt P22629 37-163) |  |  | 0.21 | 0.17

From patent publication US20220397533A1
